A word on the IC50: it is the concentration that inhibits the measured activity by half. The low end stands for greater potency in that assay, the high end for weaker potency in that assay.

The record followed here is article PMC3600089 (ACS chemical biology, 2012).

The labels stand for the following.
B3: GST-TACC3-CT E629A (domain or fragment)
chain: not shown

Assay [1] has as its target B3. Put plainly: AlphaScreen or HTRF. On the technique in general: Bead proximity is the source of the signal in Alpha formats.
In assay [2] the target is T1, His-ARNT PAS-B (human ARNT residues 356-470) (human, UniProt P27540 356-470). The assay is described as follows: pull-down.
Assay [3] deals with His-ARNT2 PAS-B (human ARNT2 residues 330-444) (human, UniProt Q9HBZ2 330-444). Put plainly: pull-down.
Assay [4] addresses ARNT2 PAS-B E372A (human, UniProt Q9HBZ2 330-444, E372A). Put plainly: pull-down.
For assay [5], the target named is ARNT2 PAS-B K391A (human, UniProt Q9HBZ2 330-444, K391A). The assay is described as follows: pull-down.
Assay [6] deals with T1, His-ARNT PAS-B (human ARNT residues …). Put plainly: AlphaScreen or HTRF.

B1: untagged ARNT PAS-B (domain or fragment)
chain: not shown
The molecule B1 showed an IC50 in assay [1] of 2000 to 3000 nM.

B2: GST-TACC3-CT (murine TACC3 residues 561-631) (domain or fragment)
chain: not shown
On to B2, for which the binding result in assay [2], in assay [3], in assay [4] and in assay [5] was “binds” throughout.

B3: in assay [6], the binding result was “binds”.
